Results reported in the supplement of paper PMC9112550, “Optimization of the antimicrobial peptide Bac7 by deep mutational scanning” (BMC Biology, 2022).

The sequences below were run on Escherichia coli TOP10 (assay: shrunken log2 fold change of peptide-encoding DNA abundance (4.5 h post-induction vs induction); higher = less antimicrobial activity (less host growth inhibition)). Details: time post-induction: 4.5 h; library: site-saturation at positions 5, 18, 19, 20.
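Also: peptides expressed intracellularly from a pBAD plasmid library in pooled LB shake-flask culture, induced with 0.3% L-arabinose, DNA abundance read by NGS, three biological replicates, DESeq2 with apeglm shrinkage.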

| Sequence | shrunken log2 fold change |
| --- | --- |
| RRIRKRPPRLPRPRPRPVAPPRP | 0.528 |
| RRIRYRPPRLPRPRPRPNVIPRP | -0.338 |
| RRIRRRPPRLPRPRPRPIPLPRP | 0.194 |
| RRIRCRPPRLPRPRPRPYFSPRP | -0.135 |
| RRIRGRPPRLPRPRPRPGGLPRP | 0.842 |
| RRIRFRPPRLPRPRPRPFIIPRP | -0.816 |
| RRIRQRPPRLPRPRPRPMLLPRP | -0.337 |
| RRIRERPPRLPRPRPRPPWLPRP | 0.488 |
| RRIRARPPRLPRPRPRPPCDPRP | 0.506 |
| RRIRARPPRLPRPRPRPRDKPRP | 0.442 |
| RRIRVRPPRLPRPRPRPPSRPRP | 0.743 |
| RRIRVRPPRLPRPRPRPWQYPRP | -0.0599 |
| RRIRERPPRLPRPRPRPQEWPRP | -0.021 |
| RRIRKRPPRLPRPRPRPNCPPRP | 0.0785 |
| RRIRSRPPRLPRPRPRPPKQPRP | -0.215 |
| RRIRERPPRLPRPRPRPTDIPRP | -0.0479 |
| RRIRYRPPRLPRPRPRPVSIPRP | -0.821 |
| RRIRRRPPRLPRPRPRPFKMPRP | -0.124 |
| RRIRLRPPRLPRPRPRPQFYPRP | -0.727 |
| RRIRSRPPRLPRPRPRPDDDPRP | -0.0062 |
| RRIRLRPPRLPRPRPRPEAEPRP | 0.96 |
| RRIRHRPPRLPRPRPRPEMQPRP | -0.000952 |
| RRIRYRPPRLPRPRPRPDVVPRP | 0.0135 |
| RRIRMRPPRLPRPRPRPVGFPRP | 0.405 |
| RRIRIRPPRLPRPRPRPRFYPRP | -0.124 |

| Sequence | shrunken log2 fold change |
| --- | --- |
| RRIRERPPRLPRPRPRPLHIPRP | -0.404 |
| RRIRYRPPRLPRPRPRPKPEPRP | -0.0857 |
| RRIRQRPPRLPRPRPRPRSNPRP | -0.108 |
| RRIRARPPRLPRPRPRPYWMPRP | -0.275 |
| RRIRSRPPRLPRPRPRPNDWPRP | 0.179 |
| RRIRDRPPRLPRPRPRPAKQPRP | 0.181 |
| RRIRLRPPRLPRPRPRPHHWPRP | -0.124 |
| RRIRYRPPRLPRPRPRPGALPRP | 0.137 |
| RRIRSRPPRLPRPRPRPMYNPRP | -0.557 |
| RRIRERPPRLPRPRPRPAEFPRP | 0.00307 |
| RRIRRRPPRLPRPRPRPLTAPRP | 0.337 |
| RRIRSRPPRLPRPRPRPMTHPRP | -0.469 |
| RRIRRRPPRLPRPRPRPLPWPRP | 0.057 |
| RRIRLRPPRLPRPRPRPSRKPRP | -0.177 |
| RRIRERPPRLPRPRPRPENKPRP | -0.697 |
| RRIRVRPPRLPRPRPRPPIDPRP | 0.0721 |
| RRIRARPPRLPRPRPRPMYQPRP | -0.21 |
| RRIRHRPPRLPRPRPRPEIHPRP | 0.0389 |
| RRIRMRPPRLPRPRPRPWLMPRP | 0.0599 |
| RRIRMRPPRLPRPRPRPDNWPRP | 0.402 |
| RRIRGRPPRLPRPRPRPPRWPRP | 1.17 |
| RRIRDRPPRLPRPRPRPRCNPRP | -0.0439 |
| RRIRNRPPRLPRPRPRPANMPRP | -0.205 |
| RRIRNRPPRLPRPRPRPFDNPRP | -0.465 |
| RRIRLRPPRLPRPRPRPWRYPRP | -0.268 |

| Sequence | shrunken log2 fold change |
| --- | --- |
| RRIRKRPPRLPRPRPRPQDTPRP | -0.0445 |
| RRIRERPPRLPRPRPRPHYGPRP | -0.249 |
| RRIRWRPPRLPRPRPRPISLPRP | -0.161 |
| RRIRTRPPRLPRPRPRPKWYPRP | -0.468 |
| RRIRTRPPRLPRPRPRPAKTPRP | 0.117 |
| RRIRLRPPRLPRPRPRPMHVPRP | -0.0348 |
| RRIRKRPPRLPRPRPRPTAGPRP | 0.581 |
| RRIRCRPPRLPRPRPRPFLVPRP | -0.511 |
| RRIRDRPPRLPRPRPRPQNTPRP | -0.605 |
| RRIRARPPRLPRPRPRPEFVPRP | 1.05 |
| RRIRVRPPRLPRPRPRPEAAPRP | 0.635 |
| RRIRARPPRLPRPRPRPREGPRP | 1.1 |
| RRIRDRPPRLPRPRPRPIKCPRP | -0.0161 |
| RRIRRRPPRLPRPRPRPNPDPRP | 0.314 |
| RRIRRRPPRLPRPRPRPAMAPRP | 0.342 |
| RRIRQRPPRLPRPRPRPFDFPRP | -0.404 |
| RRIRKRPPRLPRPRPRPVASPRP | 0.533 |
| RRIRCRPPRLPRPRPRPSQKPRP | -0.169 |
| RRIRLRPPRLPRPRPRPQAVPRP | 0.0328 |
| RRIRERPPRLPRPRPRPESNPRP | -0.65 |
| RRIRPRPPRLPRPRPRPFYQPRP | -0.142 |
| RRIRLRPPRLPRPRPRPLVIPRP | -0.33 |
| RRIRGRPPRLPRPRPRPWPCPRP | 0.373 |
| RRIRIRPPRLPRPRPRPDMVPRP | 0.0032 |
| RRIRKRPPRLPRPRPRPMNGPRP | -0.0531 |

| Sequence | shrunken log2 fold change |
| --- | --- |
| RRIRLRPPRLPRPRPRPIRTPRP | 0.0758 |
| RRIRERPPRLPRPRPRPEKDPRP | -0.137 |
| RRIRRRPPRLPRPRPRPLWAPRP | 0.501 |
| RRIRNRPPRLPRPRPRPAPQPRP | 0.182 |
| RRIRFRPPRLPRPRPRPLDEPRP | -0.132 |
| RRIRMRPPRLPRPRPRPMNDPRP | 0.25 |
| RRIRCRPPRLPRPRPRPYERPRP | -0.133 |
| RRIRIRPPRLPRPRPRPTFRPRP | -0.261 |
| RRIRPRPPRLPRPRPRPLQYPRP | -0.478 |
| RRIRCRPPRLPRPRPRPGPIPRP | 0.367 |
| RRIRGRPPRLPRPRPRPCATPRP | 2.7 |
| RRIRGRPPRLPRPRPRPDDFPRP | 0.0116 |
| RRIRCRPPRLPRPRPRPSLHPRP | -0.289 |
| RRIRWRPPRLPRPRPRPESEPRP | 0.916 |
| RRIRVRPPRLPRPRPRPIIEPRP | -0.087 |
| RRIRTRPPRLPRPRPRPVKDPRP | -0.0913 |
| RRIRRRPPRLPRPRPRPCWWPRP | 0.261 |
| RRIRARPPRLPRPRPRPYMRPRP | -0.0199 |
| RRIRSRPPRLPRPRPRPGQLPRP | -0.17 |
| RRIRYRPPRLPRPRPRPGYQPRP | -0.241 |
| RRIRKRPPRLPRPRPRPMVEPRP | 0.0956 |
| RRIRERPPRLPRPRPRPFFRPRP | -0.112 |
| RRIRNRPPRLPRPRPRPPLNPRP | 0.0798 |
| RRIRARPPRLPRPRPRPYWGPRP | -0.43 |
| RRIRGRPPRLPRPRPRPYCWPRP | 0.0345 |

| Sequence | shrunken log2 fold change |
| --- | --- |
| RRIRARPPRLPRPRPRPNMCPRP | -0.339 |
| RRIRKRPPRLPRPRPRPREYPRP | 0.261 |
| RRIRIRPPRLPRPRPRPYQSPRP | -0.0409 |
| RRIRKRPPRLPRPRPRPHAPPRP | 0.485 |
| RRIRQRPPRLPRPRPRPVMDPRP | -0.39 |
| RRIRYRPPRLPRPRPRPYQEPRP | -0.00233 |
| RRIRNRPPRLPRPRPRPPLKPRP | 0.0326 |
| RRIRDRPPRLPRPRPRPWTVPRP | -0.168 |
| RRIRPRPPRLPRPRPRPIGSPRP | 0.0547 |
| RRIRHRPPRLPRPRPRPLNKPRP | -0.677 |
| RRIRARPPRLPRPRPRPTFPPRP | 0.308 |
| RRIRQRPPRLPRPRPRPIEKPRP | 0.0125 |
| RRIRQRPPRLPRPRPRPLPQPRP | 0.337 |
| RRIRVRPPRLPRPRPRPWNRPRP | -0.183 |
| RRIRKRPPRLPRPRPRPFPQPRP | 0.11 |
| RRIRNRPPRLPRPRPRPIETPRP | -0.0081 |
| RRIRVRPPRLPRPRPRPELGPRP | 0.308 |
| RRIRFRPPRLPRPRPRPVQDPRP | -0.209 |
| RRIRERPPRLPRPRPRPINPPRP | -0.00597 |
| RRIRHRPPRLPRPRPRPRYSPRP | -0.234 |
| RRIRTRPPRLPRPRPRPPDGPRP | -0.0813 |
| RRIRWRPPRLPRPRPRPDFQPRP | 0.0985 |
| RRIRHRPPRLPRPRPRPQILPRP | -0.0081 |
| RRIRARPPRLPRPRPRPNQKPRP | 0.0427 |
| RRIRCRPPRLPRPRPRPEWPPRP | 0.331 |

| Sequence | shrunken log2 fold change |
| --- | --- |
| RRIRNRPPRLPRPRPRPNMRPRP | 0.23 |
| RRIRIRPPRLPRPRPRPPIRPRP | -0.0314 |
| RRIRARPPRLPRPRPRPLWCPRP | -0.264 |
| RRIRGRPPRLPRPRPRPAALPRP | 0.912 |
| RRIRARPPRLPRPRPRPGPQPRP | 0.367 |
| RRIRYRPPRLPRPRPRPPVWPRP | 0.0256 |
| RRIRYRPPRLPRPRPRPWQHPRP | -0.185 |
| RRIRGRPPRLPRPRPRPNDAPRP | 0.0548 |
| RRIRWRPPRLPRPRPRPENSPRP | 0.0193 |
| RRIRLRPPRLPRPRPRPIDLPRP | -0.0804 |
| RRIRHRPPRLPRPRPRPTSYPRP | -0.178 |
| RRIRGRPPRLPRPRPRPKVAPRP | 0.538 |
| RRIRWRPPRLPRPRPRPEIMPRP | 1.1 |
| RRIRWRPPRLPRPRPRPHNQPRP | -0.445 |
| RRIRVRPPRLPRPRPRPGIDPRP | -0.143 |
| RRIRWRPPRLPRPRPRPDWNPRP | 0.0393 |
| RRIRMRPPRLPRPRPRPHCWPRP | -0.207 |
| RRIRFRPPRLPRPRPRPKMKPRP | 0.0379 |
| RRIRFRPPRLPRPRPRPLVNPRP | -0.0651 |
| RRIRSRPPRLPRPRPRPCGFPRP | -0.0141 |
| RRIRQRPPRLPRPRPRPRKTPRP | 0.00489 |
| RRIRSRPPRLPRPRPRPAVQPRP | -0.0326 |
| RRIRTRPPRLPRPRPRPTFDPRP | -0.0153 |
| RRIRSRPPRLPRPRPRPAQHPRP | 0.0967 |
| RRIRPRPPRLPRPRPRPQLWPRP | 0.221 |
